Legend:
[1] = test system: T1, p70-bac heparanase (human recombinant heparanase secreted by baculovirus infected insect cells)
T1 sequence: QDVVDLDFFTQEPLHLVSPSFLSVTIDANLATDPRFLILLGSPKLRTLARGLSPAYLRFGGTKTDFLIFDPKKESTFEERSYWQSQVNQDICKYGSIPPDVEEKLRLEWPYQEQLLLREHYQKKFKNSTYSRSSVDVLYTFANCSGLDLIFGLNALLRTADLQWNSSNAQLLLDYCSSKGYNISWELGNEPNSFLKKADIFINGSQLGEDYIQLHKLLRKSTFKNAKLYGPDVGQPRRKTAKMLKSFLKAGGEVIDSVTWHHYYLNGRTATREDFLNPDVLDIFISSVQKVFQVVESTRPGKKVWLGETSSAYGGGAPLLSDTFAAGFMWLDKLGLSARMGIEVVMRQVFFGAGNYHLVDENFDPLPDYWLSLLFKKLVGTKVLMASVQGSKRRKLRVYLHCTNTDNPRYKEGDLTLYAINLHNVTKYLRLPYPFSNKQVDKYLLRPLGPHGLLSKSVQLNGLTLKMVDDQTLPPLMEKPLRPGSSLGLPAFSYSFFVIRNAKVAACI

[2] = test system: T2, p70 heparanase (about 70 kDa form of recombinant human heparanase expressed in mammalian cells)
T2 sequence: T1 sequence

cathepsin L (Cat. No. 219412, Calbiochem)
heparanase activity (DMB assay) and Western blot before and after cathepsin L [1]: demonstrates proteolytic processing of p70-bac heparanase by cathepsin L

trypsin (Cat. No. T-8642, Sigma USA)
heparanase activity (DMB assay) after trypsin digestion of CHO conditioned medium [2]: recombinant heparanase processing and activation occurred when mild trypsin digestion was employed on a crude conditioned medium of CHO cells that secrete mammalian p70 heparanase (FIG. 27). Activation was dose dependent.
heparanase activity (DMB assay) after trypsin digestion [1]: reaching maximal activation of five-fold already at 15 units trypsin
